Series [1] has as its target MBP-HJURP^R1 (human) (UniProt Q8NCD3). Kind of series: SEC + other: glycerol gradient sedimentation.
For series [2], the target named is Strep-tagged Mis18β (human) (UniProt O43482). Kind of series: SEC + other: glycerol gradient sedimentation.
For series [3], the target named is His-tagged Mis18α (human) (UniProt Q9NYP9). Kind of series: SEC + other: glycerol gradient sedimentation.
Series [4] deals with MBP-HJURP^R1 (human) (UniProt Q8NCD3). Kind of series: pull-down.
MBP-HJURP^R1 (human), sequence (Q8NCD3 348-555): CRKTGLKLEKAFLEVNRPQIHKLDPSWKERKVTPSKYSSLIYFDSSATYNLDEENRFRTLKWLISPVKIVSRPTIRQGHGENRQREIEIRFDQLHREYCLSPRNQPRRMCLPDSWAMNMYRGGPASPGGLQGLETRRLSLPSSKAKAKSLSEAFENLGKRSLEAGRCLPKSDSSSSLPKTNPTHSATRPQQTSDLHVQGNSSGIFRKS
The target of a further series is mCLI-Mis18α (human) (UniProt Q9NYP9).
mCLI-Mis18α (human), sequence (Q9NYP9 whole entry): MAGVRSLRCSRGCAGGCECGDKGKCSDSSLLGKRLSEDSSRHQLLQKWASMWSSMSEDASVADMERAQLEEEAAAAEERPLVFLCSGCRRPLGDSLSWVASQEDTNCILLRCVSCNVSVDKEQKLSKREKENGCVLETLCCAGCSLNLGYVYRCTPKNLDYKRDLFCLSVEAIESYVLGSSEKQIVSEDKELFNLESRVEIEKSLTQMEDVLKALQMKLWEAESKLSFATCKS
Series [5] concerns the molecule itself. Kind of series: SEC + other: glycerol gradient sedimentation.

Strep-tagged Mis18β (human), sequence (O43482 whole entry): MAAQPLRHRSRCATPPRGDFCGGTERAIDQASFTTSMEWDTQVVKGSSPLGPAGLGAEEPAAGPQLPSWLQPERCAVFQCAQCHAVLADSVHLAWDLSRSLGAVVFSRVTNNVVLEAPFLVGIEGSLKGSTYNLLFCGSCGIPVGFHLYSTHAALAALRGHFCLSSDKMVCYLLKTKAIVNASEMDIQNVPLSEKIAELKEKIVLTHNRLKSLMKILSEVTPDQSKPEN

“His-tagged Mis18α (from UniProt Q9NYP9 1-233) (natural protein)”: the stoichiometry N in the series with MBP-HJURP^R1 (human) [1] came to 1; in series [2], 1; in series [3], 2.

“Mis18α-β heterotetramer (preformed from recombinant Mis18α and Mis18β) (from UniProt Q9NYP9 1-233; O43482 1-229) (complex)” showed a fold binding against Mis18α or Mis18β alone with MBP-HJURP^R1 (human) [4] of 2 fold.

On to “Strep-tagged Mis18β (from UniProt O43482 1-229) (natural protein)”, for which the results for the stoichiometry N (in the series with MBP-HJURP^R1 (human) [1]; in series [2]) were 1 and 2, respectively.

“GFP-Mis18β (from UniProt O43482 1-229) (natural protein)” showed a percent of transfected cells with recruitment to the array in the series with mCLI-Mis18α (human) of 100%.

B1: S. pombe Mis18 (recombinant) (natural protein, UniProt Q9P802 1-194, looked up)
chain: MSQTETSHSGYIDFKKESQPSVFQCKKCFQIVGDSNAWVISHREYLSFTLSDAVENSVRVEDTFKRSDDGLCVYSELSCTRCNEVIGKVYNSTPIYLDDIRDMYTFSMDKLQAYQLGNKTVNPEGLTRYQVDLEMREDIIKLKSFCLSLYEKFELHDETLRSVKETISSLKKPKIEGKEGKKEKARTYSKRTRK
Regarding B1, the “stoichiometry N” value in series [5] stood at 4.

The values above are taken from publication PMC4935545 (Molecular cell, 2016).
